Data from patent US20180155451A1 (published 2018).

T1: FcγRIIb (human, UniProt P31994 43-217)
T1 construct: extracellular domain; also called FcgRIIb; 2b; not shown: His tag at the C terminus
T1 sequence (looked up): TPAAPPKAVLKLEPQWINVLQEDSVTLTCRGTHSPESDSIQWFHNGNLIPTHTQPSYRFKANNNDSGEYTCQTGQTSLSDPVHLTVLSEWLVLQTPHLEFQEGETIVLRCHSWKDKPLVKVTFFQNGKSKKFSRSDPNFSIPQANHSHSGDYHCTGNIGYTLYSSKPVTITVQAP

T2: FcγRIIb (human, UniProt P31994 43-217)
T2 construct: extracellular domain; Soluble extracellular domain with C-terminal His tag, used as analyte in Biacore; also called FcgRIIb; 2b; not shown: His tag attached to the C terminus
T2 sequence (looked up): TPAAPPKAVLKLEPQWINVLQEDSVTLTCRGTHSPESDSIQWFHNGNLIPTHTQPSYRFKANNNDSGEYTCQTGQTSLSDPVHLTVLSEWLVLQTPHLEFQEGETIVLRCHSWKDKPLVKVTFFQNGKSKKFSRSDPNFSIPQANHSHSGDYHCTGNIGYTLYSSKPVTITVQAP


Columns and labels:
[1] = target: T3, FcγRIa (human, UniProt P12314 16-292); assay: SPR; He/Con_1a divided by He/Con_2b (FcγRIIb as reference)
T3 construct: extracellular domain; also called FcgRI; 1a; not shown: His tag at the C terminus
T3 sequence (P12314 16-292): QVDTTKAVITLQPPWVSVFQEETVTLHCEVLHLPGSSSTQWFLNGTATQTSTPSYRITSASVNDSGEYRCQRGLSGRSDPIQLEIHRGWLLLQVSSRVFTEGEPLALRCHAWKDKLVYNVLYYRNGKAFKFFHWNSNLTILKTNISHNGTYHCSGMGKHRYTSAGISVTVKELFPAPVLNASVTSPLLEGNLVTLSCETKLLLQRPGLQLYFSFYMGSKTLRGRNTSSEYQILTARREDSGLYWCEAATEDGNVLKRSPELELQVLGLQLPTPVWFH

[2] = target: T3, FcγRIa; assay: SPR (Biacore), captured antibody, soluble FcγR; relative to GpH7-A5/GpH7-B3/GpL16-k0
[3] = target: T1, FcγRIIb; assay: as above
[4] = target: T4, FcγRIa (human, UniProt P12314 16-292); assay: SPR (Biacore); He/Con_1a divided by He/Con_2b (FcγRIa against FcγRIIb)
T4 construct: extracellular domain; Soluble extracellular domain with C-terminal His tag, used as analyte in Biacore; also called FcgRI; 1a; not shown: His tag attached to the C terminus
T4 sequence (P12314 16-292): as above

[5] = target: T4, FcγRIa; assay: SPR (Biacore), antibody captured on antigen peptide, FcγR as analyte; relative to GpH7-A5/GpH7-B3/GpL16-k0 = 100
[6] = target: T2, FcγRIIb; assay: as above

| Binder | Ia/IIb He_1a/2b [1] | He/Con_1a [2] | He/Con_2b [3] | Ia/IIb He_1a/2b [4] | He/Con_1a [5] | He/Con_2b [6] |
| --- | --- | --- | --- | --- | --- | --- |
| GpH7-A5/GpH7-B3 variant D265_01G/GpL16-k0 (antibody, human IgG1, kappa, He Ab: mutation only in the GpH7-B3 H chain; EU numbering; also called He Ab) heavy 1: not shown heavy 2: not shown light: DIVMTQSPLSLPVTPGEPASISCQASESLVHSNRNTYLHWYLQKPGQSPQLLIYKVSNRFSGVPDRFSGSGSGTDFTLKISRVEAEDVGVYYCSQNTHVPPTFGQGTKVEIERTVAAPSVFIFPPSDEQLKSGTASVVCLLNNFYPREAKVQWKVDNALQSGNSQESVTEQDSKDSTYSLSSTLTLSKADYEKHKVYACEVTHQGLSSPVTKSFNRGEC | 4.95 ratio | 79.9 relative, HeCon Ab = 100 | 16.1 relative, HeCon Ab = 100 |  |  |  |
| GpH7-A5/GpH7-B3 variant D265_16H/GpL16-k0 (antibody, human IgG1, kappa, He Ab: mutation only in the GpH7-B3 H chain; EU numbering; also called He Ab) heavy 1: not shown heavy 2: not shown light: DIVMTQSPLSLPVTPGEPASISCQASESLVHSNRNTYLHWYLQKPGQSPQLLIYKVSNRFSGVPDRFSGSGSGTDFTLKISRVEAEDVGVYYCSQNTHVPPTFGQGTKVEIERTVAAPSVFIFPPSDEQLKSGTASVVCLLNNFYPREAKVQWKVDNALQSGNSQESVTEQDSKDSTYSLSSTLTLSKADYEKHKVYACEVTHQGLSSPVTKSFNRGEC | 2.23 ratio | 85.4 relative, HeCon Ab = 100 | 38.3 relative, HeCon Ab = 100 |  |  |  |
| GpH7-A5/GpH7-B3 variant V266_08L/GpL16-k0 (antibody, human IgG1, kappa, Heterodimerized IgG1; mutation in the GpH7-B3 H chain only; also called He Ab) heavy 1: not shown heavy 2: not shown light: DIVMTQSPLSLPVTPGEPASISCQASESLVHSNRNTYLHWYLQKPGQSPQLLIYKVSNRFSGVPDRFSGSGSGTDFTLKISRVEAEDVGVYYCSQNTHVPPTFGQGTKVEIERTVAAPSVFIFPPSDEQLKSGTASVVCLLNNFYPREAKVQWKVDNALQSGNSQESVTEQDSKDSTYSLSSTLTLSKADYEKHKVYACEVTHQGLSSPVTKSFNRGEC |  |  |  | 0.42 ratio | 98.1 % of control | 236 % of control |

Now from value to binder:

| Ia/IIb He_1a/2b [1] | He/Con_1a [2] | He/Con_2b [3] | Ia/IIb He_1a/2b [4] | He/Con_1a [5] | He/Con_2b [6] | Binder |
| --- | --- | --- | --- | --- | --- | --- |
| 2.9 ratio | 43.2 relative, HeCon Ab = 100 | 14.9 relative, HeCon Ab = 100 |  |  |  | GpH7-A5/GpH7-B3 variant D265_11K/GpL16-k0 (antibody, human IgG1, kappa, He Ab: mutation only in the GpH7-B3 H chain; EU numbering; also called He Ab) heavy 1: not shown heavy 2: not shown light: DIVMTQSPLSLPVTPGEPASISCQASESLVHSNRNTYLHWYLQKPGQSPQLLIYKVSNRFSGVPDRFSGSGSGTDFTLKISRVEAEDVGVYYCSQNTHVPPTFGQGTKVEIERTVAAPSVFIFPPSDEQLKSGTASVVCLLNNFYPREAKVQWKVDNALQSGNSQESVTEQDSKDSTYSLSSTLTLSKADYEKHKVYACEVTHQGLSSPVTKSFNRGEC |
| 6.07 ratio | 68.7 relative, HeCon Ab = 100 | 11.3 relative, HeCon Ab = 100 |  |  |  | GpH7-A5/GpH7-B3 variant D265_13S/GpL16-k0 (antibody, human IgG1, kappa, He Ab: mutation only in the GpH7-B3 H chain; EU numbering; also called He Ab) heavy 1: not shown heavy 2: not shown light: DIVMTQSPLSLPVTPGEPASISCQASESLVHSNRNTYLHWYLQKPGQSPQLLIYKVSNRFSGVPDRFSGSGSGTDFTLKISRVEAEDVGVYYCSQNTHVPPTFGQGTKVEIERTVAAPSVFIFPPSDEQLKSGTASVVCLLNNFYPREAKVQWKVDNALQSGNSQESVTEQDSKDSTYSLSSTLTLSKADYEKHKVYACEVTHQGLSSPVTKSFNRGEC |
|  |  |  | -55.6 ratio | 59.2 % of control | -1.1 % of control | GpH7-A5/GpH7-B3 variant V266_12R/GpL16-k0 (antibody, human IgG1, kappa, Heterodimerized IgG1; mutation in the GpH7-B3 H chain only; also called He Ab) heavy 1: not shown heavy 2: not shown light: DIVMTQSPLSLPVTPGEPASISCQASESLVHSNRNTYLHWYLQKPGQSPQLLIYKVSNRFSGVPDRFSGSGSGTDFTLKISRVEAEDVGVYYCSQNTHVPPTFGQGTKVEIERTVAAPSVFIFPPSDEQLKSGTASVVCLLNNFYPREAKVQWKVDNALQSGNSQESVTEQDSKDSTYSLSSTLTLSKADYEKHKVYACEVTHQGLSSPVTKSFNRGEC |
| 73.5 ratio | 44.3 relative, HeCon Ab = 100 | 0.6 relative, HeCon Ab = 100 |  |  |  | GpH7-A5/GpH7-B3 variant D265_15Y/GpL16-k0 (antibody, human IgG1, kappa, He Ab: mutation only in the GpH7-B3 H chain; EU numbering; also called He Ab) heavy 1: not shown heavy 2: not shown light: DIVMTQSPLSLPVTPGEPASISCQASESLVHSNRNTYLHWYLQKPGQSPQLLIYKVSNRFSGVPDRFSGSGSGTDFTLKISRVEAEDVGVYYCSQNTHVPPTFGQGTKVEIERTVAAPSVFIFPPSDEQLKSGTASVVCLLNNFYPREAKVQWKVDNALQSGNSQESVTEQDSKDSTYSLSSTLTLSKADYEKHKVYACEVTHQGLSSPVTKSFNRGEC |
| 4.25 ratio | 84.5 relative, HeCon Ab = 100 | 19.9 relative, HeCon Ab = 100 |  |  |  | GpH7-A5/GpH7-B3 variant D265_02A/GpL16-k0 (antibody, human IgG1, kappa, He Ab: mutation only in the GpH7-B3 H chain; EU numbering; also called He Ab) heavy 1: not shown heavy 2: not shown light: DIVMTQSPLSLPVTPGEPASISCQASESLVHSNRNTYLHWYLQKPGQSPQLLIYKVSNRFSGVPDRFSGSGSGTDFTLKISRVEAEDVGVYYCSQNTHVPPTFGQGTKVEIERTVAAPSVFIFPPSDEQLKSGTASVVCLLNNFYPREAKVQWKVDNALQSGNSQESVTEQDSKDSTYSLSSTLTLSKADYEKHKVYACEVTHQGLSSPVTKSFNRGEC |
